Test results reported in patent publication US20250066510A1 (Janssen / Centocor, published 2025).

Assays:
human CD3 [1] = molecular target: T1, human CD3 (human, UniProt P07766 23-207); assay: flow cytometry based Intellicyt assay on human pan T cells, MFI, 4PL fit; lower end of the printed range 108-112 nM
T1 construct: also called CD3 epsilon; CD3 on primary human T cells
Protocol: The affinity of CD3_spFv-1 to T cells was measured by flow cytometry based Intellicyt assay. Briefly, pan T cells were isolated from PBMC from healthy donors. Cells were incubated with titrating amounts test molecules for 1 hour, then washed. […] Cells were then washed and resuspended in 0.10% pluronic acid containing Sytox Green, then immediately analyzed in a flow cytometer. Median fluorescent intensity (MFI) was recorded (on RL1-A). The log 10 of the molecule concentration was plotted against the MFI. Best fit curves were evaluated using a 4PL algorithm (log(agonist) vs. response—Variable slope) in GraphPad Prism 9.0.

cynomolgus monkey CD3 = molecular target: T2, cynomolgus monkey CD3 (cynomolgus monkey, UniProt Q95LI5 22-198); assay: not described at this place; the sentence refers to 'example 2'
T2 construct: whole, on cells; also called cynomolgus CD3

[2] = molecular target: T3, human GUCY2C (guanylyl cyclase C) (human, UniProt P25092 24-1073); assay: cell-based or functional assay
human CD3 [3] = molecular target: T1, human CD3; assay: flow cytometry on primary T cells
[4] = molecular target: T3, human GUCY2C (guanylyl cyclase C); assay: flow cytometry on T84 cells
Protocol: One hour cell binding studies by flow cytometry were carried out at physiologically relevant temperature (37° C.) on GUCY2CxCD3 bispecific antibodies (GUCY2CxCD3 biAb-1 and GUCY2CxCD3_biAb-2), known reference GUCY2CxCD3 bispecific antibody (biAb), and Null×CD3 control molecules. The goal was to characterize and quantify specific, cell binding for GUCY2CxCD3_biAb-1 and 2. […] Maximum binding of GUCY2CxCD3 biAb-1 and 2 was higher than reference biAb.

[5] = molecular target: T3, human GUCY2C (guanylyl cyclase C); assay: flow cytometry on CHO-huGUCY2C cells
Protocol: Three (3) cell lines, Chinese hamster ovary (CHO) cell line, CHO transfected with cyno GUCY2C, and CHO transfected with human GUCY2C, were incubated with a titrating dose of GUCY2C_mAb for 60 min at 37° C., washed twice, then incubated with AF647 labeled anti human secondary for 30 minutes at 4° C. Cells were washed twice again, resuspended and acquired in a flow cytometer. Specific antibody binding was assessed in the RL1H channel for each cell line. Data presented as signal/background where background is secondary only.

T3 sequence (P25092 other isoform, or with tags, fused parts or gaps limits assumed): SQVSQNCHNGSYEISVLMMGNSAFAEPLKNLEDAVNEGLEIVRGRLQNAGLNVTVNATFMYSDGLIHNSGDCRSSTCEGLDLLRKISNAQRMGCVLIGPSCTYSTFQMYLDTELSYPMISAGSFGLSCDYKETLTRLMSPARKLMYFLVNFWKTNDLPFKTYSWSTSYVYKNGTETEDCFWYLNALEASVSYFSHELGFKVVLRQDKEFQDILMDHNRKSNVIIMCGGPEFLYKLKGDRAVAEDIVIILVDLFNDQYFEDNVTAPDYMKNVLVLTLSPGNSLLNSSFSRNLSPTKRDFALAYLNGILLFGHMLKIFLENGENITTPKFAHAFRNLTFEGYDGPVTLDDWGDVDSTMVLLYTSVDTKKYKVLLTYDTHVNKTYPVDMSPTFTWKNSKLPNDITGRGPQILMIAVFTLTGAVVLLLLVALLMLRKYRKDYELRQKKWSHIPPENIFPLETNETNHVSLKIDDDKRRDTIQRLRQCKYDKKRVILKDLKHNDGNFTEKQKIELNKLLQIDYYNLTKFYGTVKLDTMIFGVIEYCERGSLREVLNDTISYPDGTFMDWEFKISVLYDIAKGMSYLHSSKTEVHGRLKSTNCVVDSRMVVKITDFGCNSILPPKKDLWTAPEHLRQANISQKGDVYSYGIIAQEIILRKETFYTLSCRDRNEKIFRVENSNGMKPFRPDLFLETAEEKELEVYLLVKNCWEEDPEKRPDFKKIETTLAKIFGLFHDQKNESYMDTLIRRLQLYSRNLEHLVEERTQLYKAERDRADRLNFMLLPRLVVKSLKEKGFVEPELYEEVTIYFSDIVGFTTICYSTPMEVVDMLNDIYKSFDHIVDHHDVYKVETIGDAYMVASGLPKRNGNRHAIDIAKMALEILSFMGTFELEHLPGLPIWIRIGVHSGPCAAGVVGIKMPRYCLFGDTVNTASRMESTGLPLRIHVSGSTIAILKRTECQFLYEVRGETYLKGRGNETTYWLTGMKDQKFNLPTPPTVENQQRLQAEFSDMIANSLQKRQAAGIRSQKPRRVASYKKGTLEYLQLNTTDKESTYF
T1 sequence (P07766 23-207 limits assumed): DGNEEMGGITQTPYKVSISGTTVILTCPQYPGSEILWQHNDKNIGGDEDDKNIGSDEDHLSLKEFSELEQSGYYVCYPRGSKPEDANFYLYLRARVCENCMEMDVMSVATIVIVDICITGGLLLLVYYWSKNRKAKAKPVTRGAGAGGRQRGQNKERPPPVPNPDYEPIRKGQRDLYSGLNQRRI
T2 sequence (Q95LI5 22-198): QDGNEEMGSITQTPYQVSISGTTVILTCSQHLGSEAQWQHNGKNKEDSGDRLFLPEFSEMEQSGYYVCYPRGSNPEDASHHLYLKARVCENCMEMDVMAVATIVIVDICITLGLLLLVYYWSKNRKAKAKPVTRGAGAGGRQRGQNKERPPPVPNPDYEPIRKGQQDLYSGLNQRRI

B1: CD3_spFv-1 (scFv)
scFv: EIVLTQSPATLSASPGERVTLSCSASSSVSYMNWYQQKPGCAPRRWIYDSSKLASGVPARFSGSGSGRDYTLTISSLEPEDFAVYYCQQWSRNPPTFGGGTKVEIKGGGSGGSGGCPPCGGSGGQVQLVQSGAEVKKPGSSVKVSCKASGYTFTRSTMHWVKQAPGQGLEWIGYINPSSAYTNYNQKFQGRVTLTADKSTSTAYMELSSLRSEDTAVYYCASPQVHYDYAGFPYWGCGTLVTVSS
notes: also called CD3 arm of GUCY2CxCD3_biAb-1; anti-CD3 spFv
In the case of B1, the EC50 (human CD3 [1]) is reported as 108 to 112 nM and the binding result (cynomolgus monkey CD3) is reported as “no binding”.

B2: GUCY2CxCD3_biAb-1 (bispecific antibody, human IgG1, kappa, L234A L235A)
heavy: QVQLQESGPGLVKPSETLSLTCTVSGASISHYYWSWIRRPAGKGLEWIGRIYTSGSTNYNPSLKSRVTVSVDTSKNQFSLKLSSVTAADTAVYYCARDRYTGYFDLWGRGTLVTVSSASTKGPSVFPLAPSSKSTSGGTAALGCLVKDYFPEPVTVSWNSGALTSGVHTFPAVLQSSGLYSLSSVVTVPSSSLGTQTYICNVNHKPSNTKVDKKVEPKSCDKTHTCPPCPAPEAAGGPSVFLFPPKPKDTLMISRTPEVTCVVVSVSHEDPEVKFNWYVDGVEVHNAKTKPREEQYNSTYRVVSVLTVLHQDWLNGKEYKCKVSNKALPAPIEKTISKAKGQPREPQVYTLPPSREEMTKNQVSLSCAVKGFYPSDIAVEWESNGQPENNYKTTPPVLDSDGSFFLVSKLTVDKSRWQQGNVFSCSVMHEALHNRFTQKSLSLSPGK
light: not shown
chain: EIVLTQSPATLSASPGERVTLSCSASSSVSYMNWYQQKPGCAPRRWIYDSSKLASGVPARFSGSGSGRDYTLTISSLEPEDFAVYYCQQWSRNPPTFGGGTKVEIKGGGSGGSGGCPPCGGSGGQVQLVQSGAEVKKPGSSVKVSCKASGYTFTRSTMHWVKQAPGQGLEWIGYINPSSAYTNYNQKFQGRVTLTADKSTSTAYMELSSLRSEDTAVYYCASPQVHYDYAGFPYWGCGTLVTVSSEPKSSDKTHTCPPCPAPEAAGGPSVFLFPPKPKDTLMISRTPEVTCVVVSVSHEDPEVKFNWYVDGVEVHNAKTKPREEQYNSTYRVVSVLTVLHQDWLNGKEYKCKVSNKALPAPIEKTISKAKGQPREPQVYTLPPSREEMTKNQVSLWCLVKGFYPSDIAVEWESNGQPENNYKTTPPVLDSDGSFFLYSKLTVDKSRWQQGNVFSCSVMHEALHNHYTQKSLSLSPGK
notes: HC1/LC1 form the GUCY2C Fab arm (IgG1, L234A/L235A/D265S, hole T366S/L368A/Y407V); HC2 is CD3_spFv-1 (VL2-linker-VH2) fused to IgG1 Fc (L234A/L235A/D265S, knob T366W); also called GUCY2CxCD3 bisp-Ab1; GUCY2C-CD3-bisp-Abl
With B2 the “Tumor killing EC50 (nM), HT-55” value [2] was 0.8 nM, the “Tumor killing EC50 (nM), LS1034” value [2] was 0.04 nM and the EC50 (human CD3 [3]) was 108 nM. The EC50 [4] was 12 nM.

B3: GUCY2C_mAb (antibody, V domains shown)
VH: QVQLQESGPGLVKPSETLSLTCTVSGASISHYYWSWIRRPAGKGLEWIGRIYTSGSTNYNPSLKSRVTVSVDTSKNQFSLKLSSVTAADTAVYYCARDRYTGYFDLWGRGTLVTVSS
VL: not shown
notes: From Ablexis Kappa mice, so a kappa light chain; also called GUCYC2_mAb
B3 gave an EC50 [5] of 4.6 nM.
